According to patent US20190212347A1, “BIO-ANALYTICAL METHOD FOR INSULIN ANALOGUES” (BIOCON LIMITED, priority 2016, published 2019):

How the values were obtained:
[1] = Stability in human plasma (room temperature, freeze/thaw, frozen storage); format: in vitro ADME
Procedure: Assessment of sample stability on storage (storage stability) was carried according to table (8), Acceptance criterion was defined as a recovered concentration within ±15% of the nominal spiked concentration. All standards were used within its stability period.
Validation consisted of intra run precision and bias, inter-run precision and bias, dilution integrity, matrix related modification of ionisation, auto-injector carry over, stability in whole blood at room temperature and on ice, freeze thaw stability of plasma over 5 cycles, 24 h room temperature stability of plasma, […], recovery and extract stability at 10° C.

[2] = Pharmacokinetics study: IN-105 plasma levels by LC/MS/MS in euglycemic clamp study in patients with Type 1 diabetes; format: in vivo, human
Procedure: The method was considered validated successfully since it passed all the pre-determined criteria in the validation protocol. The validated method was subsequently used for measurement of IN-105 levels in a euglycemic clamp study carried out in patients with Type 1 diabetes. The method for the determination of IN-105 in human plasma has been validated successfully over the concentration range 0.200 ng/ml to 50.0 ng/mL.
Plasma concentration data for each patient and treatment was analysed by a non-compartmental method. The area under plasma level curve for AUC0-t was calculated by the trapezoidal rule. The primary pharmacokinetic parameters (mean±SD) were Cmax, AUClast, Tmax and PD parameters were Tmin, Cmin, AUClast. Ratios and 90% CIs of geometric means were calculated for PK and PD parameters from mixed effects model with fixed effects for sequence, period and treatment, and patients within sequence as a random effect for log transformed Cmax and AUC.
The average plasma concentration time profile of IN-105 obtained after administration of IN-105 tablets in volunteers is shown in FIGS. 13-14.

[3] = Extract stability at 10° C.; format: physicochemical; settings: extracts stored at 10° C. for approximately 85 hours
Procedure: Validation consisted of intra run precision and bias, inter-run precision and bias, dilution integrity, matrix related modification of ionisation, auto-injector carry over, stability in whole blood at room temperature and on ice, freeze thaw stability of plasma over 5 cycles, 24 h room temperature stability of plasma, frozen stability in plasma at −20 and −80° C. for 73 days, recovery and extract stability at 10° C.

[4] = Stability of stock solution in acetic acid (2%) in methanol:water; format: physicochemical; settings: acetic acid (2%) in methanol:water (30:70 v/v)
Procedure: Two separate stock solutions were prepared by dissolving 2 mg of IN-105 and dissolving in 1 mL of 2% acetic acid containing methanol:water in the ratio of 30:70 v/v. Thus, the stock solution of 2000 μg/mL was prepared.
One was named “calibration stock” and other was named “quality control stock”. The stock solution was stored at −20° C. for 40 days.
In one embodiment nitrogen isotope labelled insulin having purity 96.3% and 96.1% respectively, was used as analytical standard and internal standard for further analysis. Glargine (3.64 mg/mL) of 100% purity was used as co-administered standard in the analytical procedure. The stability studies to understand storage stability and solution stability were carried out.
In addition to the experiments described above, selectivity of the method in plasma (K2EDTA/K3EDTA) from different sources, effect of lipaemia and haemolysis, selectivity and modification of ionisation of insulin in the presence of Glargine and stability of solutions of insulin or insulin analogues investigated.

[5] = room temperature, up to 24 hours

Substance	frozen stability in plasma at −20° C. ([1]; 244 days storage at −20° C.)	frozen stability in plasma at −80° C. ([1]; 244 days storage at −80° C.)	freeze/thaw stability in plasma ([1]; after five freeze/thaw cycles)	stability in plasma stored at room temperature [1, 5]	mean plasma concentration as a function of time after dosing ([2]; 30 mg/kg dose, FIG. 15)	AUClast (AUCt) as function of dose: intercept ([2]; AUClast in ng · h/ml, linear regression against dose) [area units]	AUClast (AUCt) as function of dose: slope ([2]; AUClast in ng · h/ml, linear regression against dose, oral tablets, T1D patients) [area units/mg]	Cmax as function of dose: intercept ([2]; Cmax in ng/ml, linear regression against dose) [concentration units]	Cmax as function of dose: slope ([2]; Cmax in ng/ml, linear regression against dose, oral tablets, T1D patients) [concentration units/mg]	correlation of maximal plasma concentration and area under the PK curve with dose ([2]; p<0.05)	extract stability [3]	solution stability at room temperature [4, 5]	solution stability at −20° C. ([4]; −20° C., up to 40 days)
IN-105: rapid acting insulin analogue for oral delivery; human insulin sequence conjugated with short chain alkyl-polyethylene glycol at ε-amino group of lysine B29	stable	stable	stable	stable	well-defined peak concentration and subsequent clearance is evident	−243.525	26.427	−2.421	0.431	linearly correlated significantly	stable		
[^15N] IN-105: IN-105 labelled with stable isotope 15N by fermentation in labelled medium; used as internal standard												stable	stable
